Data on 100 substances can be found in the supplement of paper PMC11502859.

“And” between values parts separate entries of the source, which are not always exact repeats. Identical values can stand only once.
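Further: lentiviral eGFP-IRES-mCherry reporter pool sorted by FACS 96 h post-transduction, gated on mCherry-high cells, Illumina read counts normalized per million, median across four biological replicates.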

CASP8, sequence (chain, as listed by the source): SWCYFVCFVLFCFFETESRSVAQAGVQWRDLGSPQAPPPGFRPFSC

The data set relates to HEK293T. The data set is described as follows: median enrichment of reporter reads in eGFP-reduced (low/intermediate) vs eGFP-high sorted cells (eGFP-extension fusion abundance) (ratio); higher = stronger loss of eGFP-fusion protein abundance (more destabilising extension).
Take AAA [Ala03]: the median enrichment was 0.262.
As to AAAA [Ala04], the median enrichment is 11.6.
On to AAAAA [Ala05], for which the median enrichment came out at 4.35.
AAAAAA [Ala06]: the median enrichment is 8.25.
As for AAAAAAA [Ala07], the figure is 8.7.
For AAAAAAAA [Ala08], the median enrichment worked out at 7.64.
The result for AAAAAAAAA [Ala09] reads 8.59; that for AAAAAAAAAA [Ala10], 8.89; that for ACKNWFSSLSHFVIHL [Degron CL1], 8.24.
The result for “ACVARPDKHLQMAAAPTWDLPRRLEQKGLSLGWCFSSRVLGCMFCTASREGVSGGHHLWDTGSKGPVHSVISFLAPASPTSPR [TMEM141]” reads 4.72; that for “ADLTPAQPPPPTSHSGLVLCLLFRTPLCPPKRQKKKKKKKSKKTSEKSAAKKWMSCNFSRDGAGGVCVPTGPGGPLRGGHAAR [PITX1]”, 10; that for “AESLGSDLAAWGESLGSVLAAWGAGIAQSMNGPTPAKAESLGPVSPAAHGTGIAHGVRSVHLQGLRPWAQSALLLRVQALHMV [WNT9A]”, 7.26.
As for “AEWPGTCLKCLFPISLRDQEGILGMPLTSLLSRQQKWRGSQESALNCPPGWQGSLNRYLELGSGLFPCVLTTRASCSRAGIRG [F11R]”, the figure is 9.01; as for “AGAQPLPGMRLSADGETATQSFGLCVCVCVCVCVCAHPRVPVCVRILPPGAEVPWVSPLLCNGLLTGAAAPRGLCSGGTQCRM [FGFR3]”, 6.29; as for “AGRAPPCMMGKAILPLPPPCFCCLFGEGGGEVGAAAPHPSSLLICTHWPLQTRTSGASPSPPPPCLAAGVAMMGWSSLGQGVL [SCN1B]”, 3.87.
As for “APLGLEFATGRILQRQVVPGPLLHPFSRRPCQRLHPVVNLVWRQRLRGWTSIVGQGLTLQGFCSWLWTPENPLLPSPNTRFLT [FAM110A]”, the median enrichment is 5.18.
Consider APRAPRQRSRDG [Degron KLHDC3], for which the median enrichment was found to be 10.8.
For “APSCLSRCDRARPKPGCTLLDWASLHCLGKSAEGPKLLRGLRLVPTPKLVCSLPLPARVSGPRSIENTTTMARWKGLLVPASS [MLST8]”, the median enrichment amounted to 5.58.
As for “ASVLLRGAVCGEGLSWQGKHLRVTLTLGPLLFLKRLLATGKKNDLATLEETSAKEDVLASLSYFCSVVDLHIVVYLVWKCVSK [POLR1D]”, the figure is 7.42; as for “CAAQTEAQAQGRNLEQGHFGHSRTGERQLYFSLGQLQRVGQALMGSDCQSDAVGPRQRKAGRRGARTFSPHCPFPFSGEHRRL [C16orf58]”, 4.54; as for CACPHPPSSLPSC [PADI1], 0.421.
The result for CAGAFVAISL [MSI2] reads 8.28.
The result for CALYLGSGQELHLGTNSC [ABCF2] reads 13.2.
In the case of “CAPAERRLETGATASRVQQHSRHGSGRDSAWPRGTFPGQGPGGNWHGLVPLLCCILIPQPAPLGSDLSCPRAEPGGPEGEMNP [ANKRD13B]”, the median enrichment amounted to 6.25.
As for CAPWWERL [HTT], the figure is 1.22; as for “CAQDGPRPSMANNHVRHSTSGRCSDASAGAGTPNPWLQNRDPHPDRGSSAFEGFQAGLCGTEAQRGPGTWQRWGREEIQLPSL [CCDC86]”, 5.52; as for CAQKS [LCE6A], 0.549.
The result for CARAALEAPARGICPYPSWKDSWMW [HCRTR1] reads 10.8.
The result for CAS [FAM118B] reads 0.212; that for “CASALEETTGSPICLEFLLLLLLVCFQISLCFLLCSRKVLQNHREKVHCYKGIPTHWRL [PAQR9]”, 25.9; that for CASP8, 22.5.
As to “CASTRAVGDSCPHLCPRAASCLALPPHSPPGMGLLLPGSLKETAAC [FAM160B2]”, the median enrichment came out at 6.35.
The result for CATLSVGFFLEDSTLLPHVLSQLQS [CSTF1] reads 8.47; that for “CAWSAHRLSSAFALLRCYRTLAPDVCSFTGCLICLLHPTGPPTSSDVFLIMSAMCPILLHALPPFPTTAEWPGTCLKCLFPIS [F11R]”, 6.63; that for CCC [Cys03], 1.07.
The result for CCCC [Cys04] reads 2.06.
The result for CCCCC [Cys05] reads 4.25.
CCCCCC [Cys06]: the median enrichment was found to be 12.4.
Consider CCCCCCC [Cys07], for which the median enrichment turned out to be 9.39.
As for CCCCCCCC [Cys08], the figure is 8.63; as for CCCCCCCCC [Cys09], 7.96; as for CCCCCCCCCC [Cys10], 9.58.
For CCP [RUBCNL], the median enrichment amounted to 0.512.
As for CCQDSCALRCK [MT1X], the figure is 0.374; as for “CCSSVKEQQTWHWNRVENPGFCTWRGKMPSCFLINPNFIYSSGTLWG [OPALIN]”, 5.49; as for CCTKDLLF [GNA13], 1.47.
The result for “CDAQTASSATKRPENSRFTTFLSHVEAFPFNRGPSSEPRPISAIFFS [LMBR1]” reads 12.
The result for “CDARQFLDLGGLKRPPSCLLSFSVSSFLLVFFILFSFHQPSCILALQRDRDRSSAQGFSLPLFIMGGGYHPPSQSCEESGTSF [NOTCH3]” reads 9.5; that for “CDPCKWDSPPVHEAWLLQYLLVEELYSKMKRKNKQTNKKKHKKRKNTFLYLTMFFEYVFFL [RBFOX2]”, 0.264.
Consider “CDPPRPPEWPPPHHSTMGLDARVIVVQNRRENRPATHKGQG [TMEM151A]”, for which the median enrichment was 4.51.
CDQLSCTNFEV [IFNGR1]: the median enrichment was found to be 0.207.
In the case of CEA [NPSR1], the median enrichment is 10.3.
In the case of CEGQTPEEPLQ [CXCL12], the median enrichment amounted to 0.136.
Consider CEGYYPFYYGTMPCVKNNHPLAYSH [DPY19L2], for which the median enrichment was 8.92.
The result for CELLPCPSFPPCTT [FEZF2] reads 0.681; that for CEQ [PRF1], 12.2.
As for “CEQQMELWERGEQWGYRESSSALPLGQPHLPAVSPGHFSTSQVEVLQGPAATCIRRTSFSA [SPATA19]”, the figure is 2.8.
With CERGLSSSLPAPSSPRPSSLCAW [HOXC10], the median enrichment amounted to 2.77.
For the substance CESVHQTKCGKNTKKT [GYPA], the median enrichment turned out to be 0.413.
As for CETHNFISHSDHRLLNIADRNRSLQGV [TAS2R13], the figure is 2.12; as for “CFSRGQGGEGASGGVGAGGTVPREPGGSHTRTAPVSSGHCNPVGLFLQHSRSLPSIATLQTPG [SFRP1]”, 4.21; as for CFSVNLSLLVERSGACPSSQTSDL [LRRC46], 5.72.
As for CFWNRVKLSQRRRKSPGICTS [PPP1R14C], the figure is 13.7.
The result for CGA [FOSL1] reads 0.817; that for CGAARRSR [METAP1D], 1.33.
Turning to CGACYGLNCAPK [ZNF81], the median enrichment amounted to 1.07.
Regarding CGAEHHPSH [PPM1J], the median enrichment was determined as 0.355.
As for CGALRPS [PNKD], the figure is 0.539; as for “CGCAPAGSSKDRPARSPSNPTFFWKGGVLQGQAGASSRLLGANPSMYIAFLSCLRAADSQRCARGERCAVGSRA [TNFRSF1A]”, 13.5.
Turning to CGCQLGRKRETRP [CCND2], the median enrichment turned out to be 0.808.
As for “CGEPLAWPTNLGFTIQTADWMKLCTFLSLQLPYVESVIFICTFFAT [TAF7L]”, the figure is 10.8.
For the substance “CGGLPRRAKMAEMILKITEEREDQPEFPLDICVFLFFYFVLFFLLLLLP [SOX9]”, the median enrichment stood at 9.11.
The result for “CGGLVSELGLCRESLFCVSHPLPDPSLCLYSLNSVEFN [MCM3]” reads 13.4; that for CGHLSGPGALMEAIGTPELPSHS [ODF2], 0.872.
As for CGIII [SRGAP2], the figure is 1.59; as for CGILGDSPREELGC [CEP85], 0.759; as for “CGILRWLACWAWGLLTDSMEQGWAVCAHAQHALRGGGGGRGFLMSVQELKVSGVLPRICPTPHDKTELCNKQYQFILAVGFCF [WDR6]”, 9.47.
As for CGIQRERGSGRGGPEWGRLEGYRPAWMT [SNCG], the figure is 3.44; as for CGLGRFS [IMMT], 0.695.
For the substance “CGLGWAGARRAAGWPLGGQDGTVGTEVGGRGPSGLN [TNFRSF8]”, the median enrichment is 5.21.
Take “CGLLPLGPLTLSGWWTTKYNPVYNLKIYFTFVLLYLFIKG [SMAD4]”: the median enrichment turned out to be 2.65.
The result for CGLPSGGGAMWLGS [SMYD1] reads 0.906; that for “CGPDCSLHSAHSICSHPPSLTQPPLSGILPQMRSERQ [ABHD6]”, 0.625.
The result for CGPEASWVSLGPQKLIKE [PCP2] reads 0.292; that for CGPGGSGRGWPHPHDHCPGGGGLLLLSF [BIK], 10.6; that for “CGRCTRQEEGDWGPWPGTVLLRGRRRLQQSHGSPRGEGCLSRFLRPRRSDFWARGHARAVQSWPGPPVGLLCSLPSLPPDAGP [FRMD8]”, 5.53.
As for CGRPELSRPPPALLGAGVLDPWHLPGPLT [LLGL1], the figure is 2.46; as for CGRTSALSDRTLRAMLPCHP [MRGPRX3], 6.32.
As for CGSCGCPCCVALYDCC [NDUFB10], the median enrichment turned out to be 4.77.
The result for “CGSLRTTASLLLTSVATEAERQSDTSTGAPGEMGPA [PEX26]” reads 0.412; that for CGSRPGRPFARRRGMGERT [ARHGEF1], 7.51; that for CGVSPGLMVCLL [APOBEC3F], 12.2.
The result for “CGWNQGQPALRASVLLRGAVCGEGLSWQGKHLRVTLTLGPLLFLKRLLATGKKNDLATLEETSAKEDVLASLSYFCSVVDLHI [POLR1D]” reads 8.09.
As for “CGWPRAVRTMKPGQRPGASPAALPTRHPPASPLGAGAHPQHPHLLINISTPGCST [COPE]”, the median enrichment came out at 5.98.
Take CHLRNI [MLLT10]: the median enrichment stood at 1.38.
The result for CHRGKRRKSC [CLDN1] reads 0.437.
The result for CIFFYQEG [PTEN] reads 6.73 and 8.49; that for CITKCLYCLK [EFCAB1], 7.35.
As for “CIYTAKKNYECMEFFKKKYNALLQRTLGKKPYVKVMTVK [ZNF140]”, the figure is 22.2; as for CKKKKKKALAFSCLFC [PCDH17], 46.4.
